We go through two substances from paper PMC7921601.

Experiment [1] deals with AF647-CLIC1C24 (CLIC1 W23F, C59A, C89A, C178A, C191A, C223A, labelled with Alexa Fluor 647 at C24) (UniProt O00299). Description: two-colour single-molecule TIRF colocalisation with photobleaching step analysis; AF647-CLIC1C24 (1 μM) with AF488-αBcC176 (2 μM) at 37 °C in 50 mM phosphate buffer pH 7.4; later timepoints (1-10 h); diluted 1:1000, CLIC1 held by an anti-6X His-tag antibody; with or without cross-linking before dilution.

Experiment [2] shares this target. Description: two-colour single-molecule TIRF colocalisation with photobleaching step analysis; AF647-CLIC1C24 (1 μM) with AF488-αBcC176 (2 μM) at 37 °C in 50 mM phosphate buffer pH 7.4; early timepoints (0.25-0.5 h); diluted 1:1000, CLIC1 held by an anti-6X His-tag antibody. The conditions noted are these: scale: αBc subunits per CLIC1 subunit.
Experiment [3] deals with AF488-αBc_(C176) (human alphaB-crystallin with an additional C-terminal cysteine, labelled with Alexa Fluor 488) (human). Put plainly: single-molecule TIRF with photobleaching step analysis; αBcC176 in the absence of CLIC1C24, with or without cross-linking, diluted for TIRF microscopy; size of the oligomers.
Experiment [4] has as its target AF555-CLIC1C24 (CLIC1 W23F, C59A, C89A, C178A, C191A, C223A, labelled with Alexa Fluor 555 at C24) (UniProt O00299). Description: FRET or BRET; single-molecule FRET by TIRF microscopy; AF555-CLIC1C24 (1 μM) with AF647-αBcC176 (2 μM) for 20 h at 37 °C in 50 mM phosphate buffer pH 7.4, diluted 1:1000, CLIC1 held on the coverslip by an anti-6X His-tag antibody; imaged at about 20 °C. (Bioluminescence resonance energy transfer reports proximity on the nanometre scale.)

Where only a bound is given, the exact number is not on record here.

The term stoichiometry N denotes a count of units in the complex or per binding partner. As to “AF488-αBc_(C176) (human alphaB-crystallin with an additional C-terminal cysteine, labelled with Alexa Fluor 488) (natural protein)”, the percent of CLIC1C24 colocalized with αBcC176 (maximum, after 4 h) in experiment [1] was 50%. For the same substance, the results for the stoichiometry N in experiment [2] and in experiment [3] were 1 and less than 10 subunits, respectively.

Substance “AF647-αBc_(C176) (human alphaB-crystallin with an additional C-terminal cysteine, labelled with Alexa Fluor 647) (natural protein)” displayed an FRET efficiency (E) in experiment [4] of 0.8 to 1.
